In PMC6133388 one finds NbSAMS2 enzymatic activity in vitro (conversion of 35S-Met to 35S-SAM, TLC) after pre-incubation with varying amounts of GST-C4; reduction of activity data, which are given here for one substance.

For the experiment, the target named is GST-tagged NbSAMS2 (GST-NbSAMS2) (N. benthamiana).

As for GST-C4 (natural protein), the NbSAMS2 enzymatic activity in vitro (conversion of 35S-Met to 35S-SAM, TLC) after pre-incubation with varying amounts of GST-C4; reduction of activity at an 8:1 molar ratio of C4:NbSAMS2 was found to be 80%.
